FireProtDB
Where “and” joins values, the source holds several entries; their conditions need not be identical. Equal entries are not always repeated.

[1] = Saccharomyces cerevisiae (strain ATCC 204508 / S288c), pH 6, 46.5 °C, Thermal, Absorbance, Sodium phosphate 100 mM, reversible: yes, structure 1YCC
[2] = Saccharomyces cerevisiae (strain ATCC 204508 / S288c), pH 6, Thermal, Absorbance, Sodium phosphate 100 mM, reversible: yes, structure 1YCC
[3] = Escherichia coli (strain K12), pH 7.4, Thermal, DSC, HEPES 50 mM, structure 1ANK
[4] = Homo sapiens, pH 7.5, Thermal, CD, HEPES 0.8mM, NaCl 6mM, transition: 2, structure 6EW2
[5] = Gallus gallus, pH 7, 25 °C, NaClO4 titration, CD, PIPES 10 mM, NaCl 50 mM, reversible: no
[6] = Methanobacterium formicicum, pH 7.2, 25 °C, GdnHCl, CD, potasssium phosphate 20 mM, KCl 200 mM, reversible: yes
[7] = Escherichia coli (strain K12), pH 7.2, Thermal, DSC, HEPES 0.05 mM
[8] = Escherichia coli (strain K12), pH 7.4, Thermal, DSC, HEPES 50 mM
[9] = Bos taurus, pH 8, Thermal, DSC, Tris-HCl 10 mM, NaCl 200 mM, reversible: yes
[10] = Escherichia coli (strain K12), pH 7, 30 °C, Urea, CD, Potassium phosphate 10 mM
[11] = Homo sapiens, pH 7.5, Thermal, DSF, Hepes 25mM, NaCl 150mM, structure 6DLO
[12] = Escherichia coli (strain K12), pH 7.5, Thermal, CD, Potassium phosphate 10 mM, reversible: yes, structure 1EZA
[13] = Escherichia coli (strain K12), pH 7.5, Thermal, DSC, Potassium phosphate 10 mM, reversible: yes, structure 1EZA
[14] = Saccharomyces cerevisiae (strain ATCC 204508 / S288c), pH 6, 20 °C, GdnHCl, Fluorescence, Sodium phosphate 0.1 M, reversible: yes, structure 1YCC
[15] = Escherichia coli (strain K12), pH 7, 10 °C, Urea, CD, Potassium phosphate 50 mM, KCl 100 mM
[16] = Escherichia coli (strain K12), pH 7, 25 °C, GdnHCl, Fluorescence, potassium phosphate 50 mM, KCl 100 M, reversible: yes
[17] = Escherichia coli (strain K12), pH 7, 25 °C, Urea, CD, Potassium phosphate 50 mM, KCl 100 mM
[18] = Escherichia coli (strain K12), pH 7, 25 °C, Urea, Fluorescence, potassium phosphate 50 mM, KCl 100 mM, reversible: yes
[19] = Cyprinus carpio, pH 7.5, Thermal, CD, Sodium phosphate 10 mM, CaCl2 0.00001 M
[20] = Homo sapiens, pH 7.4, Thermal, CD, phosphate 10 mM, NaCl 10 mM, transition: 2, structure 2NLU

Chain of Parvalbumin beta wild type, P02618 (P02618 whole entry): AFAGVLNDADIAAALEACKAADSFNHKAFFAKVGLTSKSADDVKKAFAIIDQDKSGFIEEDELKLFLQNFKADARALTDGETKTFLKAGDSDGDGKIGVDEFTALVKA
Chain of Cytochrome c isoform 1 C108S, P00044 (P00044 whole entry C108S, canonical isoform): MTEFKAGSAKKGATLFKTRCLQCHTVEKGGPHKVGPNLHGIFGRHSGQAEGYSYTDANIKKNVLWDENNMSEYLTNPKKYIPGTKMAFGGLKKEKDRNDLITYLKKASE
Chain of Tropomyosin alpha-1 chain wild type, P04268 (P04268 whole entry): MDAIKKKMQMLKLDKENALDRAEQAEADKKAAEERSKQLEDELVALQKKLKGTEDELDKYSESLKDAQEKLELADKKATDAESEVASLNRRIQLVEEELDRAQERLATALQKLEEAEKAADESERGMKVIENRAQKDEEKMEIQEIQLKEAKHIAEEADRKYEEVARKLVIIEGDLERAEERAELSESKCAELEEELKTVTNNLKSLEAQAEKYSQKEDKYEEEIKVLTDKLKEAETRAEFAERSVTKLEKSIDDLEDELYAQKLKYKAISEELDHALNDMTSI
Chain of Cytochrome c isoform 1 P77I, P00044 (P00044 whole entry P77I, canonical isoform): as the sequence (P00044 whole entry C108S, canonical isoform) above, with P77I, S108C counted along it
Chain of Cytochrome c isoform 1 N58G|C108A, P00044 N58G C108A (P00044 whole entry N58G/C108A, canonical isoform): as the sequence (P00044 whole entry C108S, canonical isoform) above, with N58G, S108A counted along it
Chain of Cold shock protein CspA wild type, P0A9X9 (P0A9X9 whole entry): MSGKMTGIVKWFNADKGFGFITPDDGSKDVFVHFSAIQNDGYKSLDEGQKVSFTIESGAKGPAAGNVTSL
Chain of Archaeal histone B wild type, P48784 (P48784 whole entry): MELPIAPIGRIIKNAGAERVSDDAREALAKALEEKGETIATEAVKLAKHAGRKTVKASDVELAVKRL
Chain of Superoxide dismutase [Cu-Zn] wild type, P00442 (P00442 whole entry): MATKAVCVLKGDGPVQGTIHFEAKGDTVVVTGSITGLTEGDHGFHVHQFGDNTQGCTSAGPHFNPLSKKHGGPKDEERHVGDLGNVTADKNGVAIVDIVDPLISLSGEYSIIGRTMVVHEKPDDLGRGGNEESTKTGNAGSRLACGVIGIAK
Chain of Adenylate kinase wild type, P69441 (P69441 whole entry): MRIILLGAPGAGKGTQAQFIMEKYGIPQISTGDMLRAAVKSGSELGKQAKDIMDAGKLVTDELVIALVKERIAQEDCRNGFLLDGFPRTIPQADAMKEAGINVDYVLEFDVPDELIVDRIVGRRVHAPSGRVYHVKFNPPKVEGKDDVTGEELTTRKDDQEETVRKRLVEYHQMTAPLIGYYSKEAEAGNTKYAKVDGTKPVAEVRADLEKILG
Chain of Hepatoma-derived growth factor P24A, P51858 (P51858 whole entry P24A): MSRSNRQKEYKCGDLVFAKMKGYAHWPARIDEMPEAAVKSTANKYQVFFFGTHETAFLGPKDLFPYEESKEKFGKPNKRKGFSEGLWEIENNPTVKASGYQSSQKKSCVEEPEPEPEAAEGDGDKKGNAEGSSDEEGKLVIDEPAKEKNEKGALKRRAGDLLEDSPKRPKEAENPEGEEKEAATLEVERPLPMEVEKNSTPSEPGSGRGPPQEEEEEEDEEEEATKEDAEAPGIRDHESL
Chain of Endo-1,4-beta-xylanase wild type, Q56013 (Q56013 entry or part of it): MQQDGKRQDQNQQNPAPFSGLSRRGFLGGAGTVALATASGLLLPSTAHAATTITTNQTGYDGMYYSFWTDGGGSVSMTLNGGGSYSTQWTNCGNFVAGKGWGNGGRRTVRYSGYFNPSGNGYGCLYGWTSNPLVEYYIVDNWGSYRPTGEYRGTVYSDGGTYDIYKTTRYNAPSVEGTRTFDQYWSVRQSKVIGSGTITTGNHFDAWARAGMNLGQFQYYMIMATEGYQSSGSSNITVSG
Chain of Cytochrome c V93A|S104A, P67881 V93A S104A (P67881 whole entry V93A/S104A): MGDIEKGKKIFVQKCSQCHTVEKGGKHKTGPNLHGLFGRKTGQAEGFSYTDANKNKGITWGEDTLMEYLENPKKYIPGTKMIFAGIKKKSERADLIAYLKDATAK
Chain of Cytochrome c wild type, P00041 (P00041 whole entry): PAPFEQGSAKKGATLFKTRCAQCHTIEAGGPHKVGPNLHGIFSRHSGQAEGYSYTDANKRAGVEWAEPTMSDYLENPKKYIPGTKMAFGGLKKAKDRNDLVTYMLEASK
Chain of Hepatoma-derived growth factor wild type, P51858 (P51858 whole entry): as the sequence (P51858 whole entry P24A) above, with A24P counted along it
Chain of Cytochrome c wild type, P67881 (P67881 whole entry): as the sequence (P67881 whole entry V93A/S104A) above, with A93V, A104S counted along it

Question: With “Cytochrome c isoform 1 N58G|C108A, P00044 N58G C108A” as the substance, how does the “ddG of mutation (higher = less stable)” value [1] read?
Answer: The value was -0.9 kcal/mol.

Question: And the “heat capacity change of unfolding” value [1]?
Answer: Its value is 2 kcal/mol/K.

Question: And the Tm [2]?
Answer: The Tm was 50.1 °C.

Question: What about the “change of melting temperature, mutant - wild type (higher = more stable)” value (shortened to “change of melting temperature, mutant”) [2] of the same substance?
Answer: The value was 3.6 °C.

Question: And the “heat capacity change of unfolding” value [2]?
Answer: The value was 2 kcal/mol/K.

Question: And the “unfolding enthalpy (van 't Hoff)” value [2]?
Answer: The value was 50 kcal/mol.

Question: With “APRLPQCQGDDQEKCLCNKDECPPGQCRFPRGDADPYCE [Decorsin wild type]” as the substance, how does the Tm (Macrobdella decora, pH 7, Thermal, CD, Na2HPO4 10 mM, reversible: Yes, whole UniProt chain shown) read?
Answer: Its Tm is 74 °C.

Question: What does the source list for Adenylate kinase R88G, P69441?
Answer: ddG of mutation (higher = less stable) (Escherichia coli (strain K12), pH 7.4, 51.8 °C, Thermal, DSC, HEPES 50 mM, structure 1ANK): 0.2 kcal/mol; Tm [3]: 51 °C; change of melting temperature, mutant - wild type (higher = more stable) [3]: -0.8 °C; unfolding enthalpy (calorimetric) [3]: 75 kcal/mol; unfolding enthalpy (van 't Hoff) [3]: 161 kcal/mol

Question: Which unfolding free energy (Pichia kudriavzevii, pH 6.5, 25 °C, GdnHCl, CD, HCl 0.1 M, reversible: yes) does the source give for Cytochrome c wild type, P00041 here?
Answer: Its unfolding free energy is 14 kcal/mol.

Question: For “Endo-1,4-beta-xylanase wild type, Q56013”, which Tm (Streptomyces sp. EC3, pH 6, Thermal, CD, Sodium phosphate 25 mM, reversible: no) is on record?
Answer: Its Tm is 56.8 °C.

Question: And the Tm (Streptomyces sp. EC3, pH 6, Thermal, Fluorescence, Sodium phosphate 25 mM, reversible: no)?
Answer: Its Tm is 61.1 °C.

Question: What does the source list for “Myelin P2 protein (from UniProt P02689) I52T”?
Answer: change of melting temperature, mutant - wild type (higher = more stable) [4]: -13 °C; ddG of mutation (higher = less stable) [4]: 5.17 kcal/mol

Question: Which “ddG of mutation (higher = less stable)” value [5] does the source give for “Cytochrome c V93A|S104A, P67881 V93A S104A” here?
Answer: Its value is 0.26 kcal/mol.

Question: What about the unfolding free energy [5] of the same substance?
Answer: Its unfolding free energy is 4.91 kcal/mol.

Question: What does the source list for Archaeal histone B wild type, P48784?
Answer: denaturant m value [6]: 3.4 kcal/mol/M; unfolding free energy [6]: 5.7 kcal/mol and 10.8 kcal/mol

Question: Which “denaturant midpoint (higher = more stable)” value (“denaturant midpoint” for short) (Solanum tuberosum, pH 8.4, 23 °C, GdnHCl, Fluorescence, Tris-HCl 0.1 M, whole UniProt chain shown) does the source give for “QQHADPICNKPCKTHDDCSGAWFCQACWNSARTCGPYVG [Metallocarboxypeptidase inhibitor wild type]” here?
Answer: The value was 1.45 M.

Question: And the “denaturant midpoint” value (Solanum tuberosum, pH 8.4, 23 °C, GdnSCN, Fluorescence, Tris-HCl 0.1 M, whole UniProt chain shown)?
Answer: Its value is 0.7 M.

Question: For Adenylate kinase wild type, P69441, which Tm [7] is on record?
Answer: The Tm was 51.8 °C.

Question: What about the “unfolding enthalpy (calorimetric)” value [7] of the same substance?
Answer: Its value is 95 kcal/mol.

Question: What about the Tm [8] of the same substance?
Answer: The Tm was 51.8 °C.

Question: What about the “unfolding enthalpy (calorimetric)” value [8] of the same substance?
Answer: Its value is 95 kcal/mol.

Question: And the “unfolding enthalpy (van 't Hoff)” value [8]?
Answer: The value was 158 kcal/mol.

Question: Which results are given for “Superoxide dismutase [Cu-Zn] wild type, P00442”?
Answer: Tm (Bos taurus, pH 7.8, Thermal, DSC, Potassium phosphate 100 mM, reversible: no (32%)): 88.3 °C; Tm [9]: 59.9 °C; unfolding enthalpy (calorimetric) [9]: 152 kcal/mol

Question: With “Phosphocarrier protein HPr wild type, P0AA04” as the substance, how does the denaturant m value [10] read?
Answer: Its denaturant m value is 1.06 kcal/mol/M.

Question: And the “denaturant midpoint” value [10]?
Answer: The value was 4.34 M.

Question: What about the unfolding free energy (Escherichia coli (strain K12), pH 7, 30 °C, Urea, CD, Potassium phosphate 50 mM, reversible: yes) of the same substance?
Answer: Its unfolding free energy is 4.95 kcal/mol.

Question: What about the Tm (Escherichia coli (strain K12), pH 7, Thermal, CD, Potassium phosphate 10 mM) of the same substance?
Answer: Its Tm is 30 °C.

Question: Which results are given for “Leucine-rich repeat serine/threonine-protein kinase 2, Q5S007 G2385R”?
Answer: Tm [11]: 31.3 °C; change of melting temperature, mutant - wild type (higher = more stable) [11]: 0.33 °C

Question: Which unfolding free energy (Gallus gallus, pH 7, 39 °C, Thermal, CD, Sodium phosphate 10 mM, NaCl 0.5 M, reversible: yes) does the source give for “Tropomyosin alpha-1 chain wild type, P04268” here?
Answer: Its unfolding free energy is 9 kcal/mol and 12.4 kcal/mol and 9.6 kcal/mol.

Question: What about the “unfolding enthalpy (van 't Hoff)” value (Gallus gallus, pH 7, Thermal, CD, Sodium phosphate 10 mM, NaCl 0.5 M, reversible: yes) of the same substance?
Answer: The value was 162 kcal/mol and 225 kcal/mol and 98 kcal/mol.

Question: With “Hepatoma-derived growth factor wild type, P51858” as the substance, how does the Tm (Homo sapiens, pH 7.4, Thermal, CD, phosphate 10 mM, NaCl 10 mM, transition: 2) read?
Answer: Its Tm is 47 °C.

Question: For “Phosphoenolpyruvate-protein phosphotransferase H189A, P08839”, which Tm [12] is on record?
Answer: Its Tm is 54 °C.

Question: What about the “unfolding enthalpy (van 't Hoff)” value [12] of the same substance?
Answer: The value was 118 kcal/mol.

Question: And the Tm [13]?
Answer: Its Tm is 55.8 °C.

Question: What about the “unfolding enthalpy (calorimetric)” value [13] of the same substance?
Answer: Its value is 143 kcal/mol.

Question: For Cytochrome c wild type, P67881, which unfolding free energy [5] is on record?
Answer: The unfolding free energy was 5.17 kcal/mol.

Question: What does the source list for Cytochrome c isoform 1 P77I, P00044?
Answer: ddG of mutation (higher = less stable) [14]: 1.7 kcal/mol; denaturant midpoint (higher = more stable) [14]: 0.72 M; unfolding free energy [14]: 1.9 kcal/mol

Question: With “Cold shock protein CspA wild type, P0A9X9” as the substance, how does the denaturant m value [15] read?
Answer: The denaturant m value was 0.59 kcal/mol/M.

Question: What about the “denaturant midpoint” value [15] of the same substance?
Answer: The value was 4.95 M.

Question: And the unfolding free energy [15]?
Answer: Its unfolding free energy is 2.92 kcal/mol.

Question: What about the denaturant m value [16] of the same substance?
Answer: The denaturant m value was 2.2 kcal/mol/M.

Question: And the “denaturant midpoint” value [16]?
Answer: Its value is 1.4 M.

Question: And the unfolding free energy [16]?
Answer: Its unfolding free energy is 3.1 kcal/mol.

Question: And the denaturant m value [17]?
Answer: Its denaturant m value is 0.71 kcal/mol/M.

Question: And the “denaturant midpoint” value [17]?
Answer: The value was 4.2 M.

Question: And the unfolding free energy [17]?
Answer: Its unfolding free energy is 3 kcal/mol.

Question: And the denaturant m value [18]?
Answer: The denaturant m value was 0.71 kcal/mol/M.

Question: What about the “denaturant midpoint” value [18] of the same substance?
Answer: Its value is 4.2 M.

Question: What about the unfolding free energy [18] of the same substance?
Answer: Its unfolding free energy is 3 kcal/mol.

Question: And the Tm (Escherichia coli (strain K12), pH 7, Thermal, CD, potassium phosphate 50 mM, KCl 100 M, reversible: yes)?
Answer: Its Tm is 59 °C.

Question: With Parvalbumin beta wild type, P02618 as the substance, how does the Tm [19] read?
Answer: The Tm was 90 °C.

Question: What about the “heat capacity change of unfolding” value [19] of the same substance?
Answer: The value was 1.1 kcal/mol/K.

Question: And the “unfolding enthalpy (calorimetric)” value [19]?
Answer: The value was 120 kcal/mol.

Question: And the Tm (Cyprinus carpio, pH 7.5, Thermal, CD, Sodium phosphate 10 mM, EDTA 5 mM)?
Answer: The Tm was 32 °C.

Question: And the Tm (Cyprinus carpio, pH 7.5, Thermal, CD, Sodium phosphate 10 mM, NaCl 2 M)?
Answer: Its Tm is 55 °C.

Question: With “Hepatoma-derived growth factor P24A, P51858” as the substance, how does the Tm [20] read?
Answer: Its Tm is 40 °C.

Question: And the “change of melting temperature, mutant” value [20]?
Answer: The value was -7 °C.

Question: Which “ddG of mutation (higher = less stable)” value [1] does the source give for Cytochrome c isoform 1 C108S, P00044 here?
Answer: Its value is -2.8 kcal/mol.

Question: What about the “heat capacity change of unfolding” value [1] of the same substance?
Answer: The value was 2 kcal/mol/K.

Question: What about the Tm [2] of the same substance?
Answer: Its Tm is 57.8 °C.

Question: What about the “change of melting temperature, mutant” value [2] of the same substance?
Answer: The value was 11.3 °C.

Question: And the “heat capacity change of unfolding” value [2]?
Answer: The value was 2 kcal/mol/K.

Question: What about the “unfolding enthalpy (van 't Hoff)” value [2] of the same substance?
Answer: Its value is 87 kcal/mol.
